From paper PMC5650531

Molecular target: His6-CCCP-1 (C. elegans CCCP-1, full length) (C. elegans)
Experiment: SEC-MALS

stoichiometry N: 2
Substance: His6-CCCP-1 (C. elegans CCCP-1, full length) (natural protein)
